Assay results as given in US20240148883A1, “Branched Linkers for Antibody-Drug Conjugates and Methods of Use Thereof” (priority 2021, published 2024).
Where two headings read alike, the source gives them in different places.

Legend:
[1] = format: physicochemical
Experimental: (§1) Methods: Antibodies (15 mg/mL) bearing one or two aldehyde tags (single or double-tagged constructs) were conjugated to linker-payloads at 1.1 or 1.7 mM, respectively. Reactions proceeded for 72 h at 37° C. in 20 mM sodium citrate, 50 mM NaCl pH 5.5 (20/50 buffer) containing 0.85-2.5% DMA. […] After conjugation, free drug was removed using a 30 kD MWCO 0.5 mL Amicon spin concentrator. Samples were added to the spin concentrator, centrifuged at 15,000×g for 7 min, then diluted with 450 μL 20 mM sodium citrate, 50 mM NaCl pH 5.5 and centrifuged again. The process was repeated 10 times. To determine the DAR of the final product, ADCs were examined by analytical chromatography using HIC (Tosoh #14947) or PLRP-RP (Agilent PL1912-1802 1000 A, 8 um, 50×2.1 mm) columns. HIC analysis used mobile phase A: 1.5 M ammonium sulfate, 25 mM sodium phosphate pH 7.0, and mobile phase B: 25% isopropanol, 18.75 mM sodium phosphate pH 7.0. PLRP analysis used mobile phase A: 0.1% trifluoroacetic acid in water, and mobile phase B: 0.1% trifluoroacetic acid in acetonitrile. Prior to PLRP analysis, sample was denatured with the addition of 50 mM DTT, 4 M guanidine HCl (final concentrations) and heating at 37° C. for 30 min. To determine aggregation, samples were analyzed using analytical size exclusion chromatography (SEC; Tosoh #08541) with a mobile phase of 300 mM NaCl, 25 mM sodium phosphate pH 6.8 with 5% isopropanol.

[2] = Aggregation of conjugates by analytical size exclusion chromatography (SEC): % monomeric / % HMW; format: physicochemical
Experimental: as §1

[3] = conjugated to antibody against Target 1
[4] = conjugated to antibody against Target 2
[5] = conjugated to antibody against Target 3
[6] = conjugated to antibody against Target 4
[7] = conjugated to antibody against Target 5
[8] = conjugated to antibody against Target 7
[9] = conjugated to antibody against Target 8
[10] = conjugated to antibody against Target 9
[11] = conjugated to antibody against Target 10

CC[C@@]1(O)C(=O)OCc2c1cc1n(c2=O)Cc2c-1nc1ccccc1c2CCN(C(=O)OCc1ccc(NC(=O)[C@H](C)NC(=O)[C@@H](NC(=O)CCC(=O)Nc2ccc3c(c2)cc(CN(C)NC)n3CCC(=O)N[C@H](C(=O)N[C@@H](C)C(=O)Nc2ccc(COC(=O)N(CCc3c4c(nc5ccccc35)-c3cc5c(c(=O)n3C4)COC(=O)[C@]5(O)CC)C(C)C)cc2O[C@@H]2O[C@H](C(=O)O)[C@@H](O)[C@H](O)[C@H]2O)C(C)C)C(C)C)c(O[C@@H]2O[C@H](C(=O)O)[C@@H](O)[C@H](O)[C@H]2O)c1)C(C)C [Compound 18]
DAR [1, 3]: 6.82
DAR [1, 4]: 6.16
DAR [1, 5]: 4.31
DAR [1, 6]: 6.97
DAR [1, 7]: 5.45
DAR [1, 8]: 6.88
DAR [1, 9]: 6.1
DAR [1, 10]: 6.84
DAR [1, 11]: 5.49
% HMW (high-molecular weight species) [2, 3]: 1.8%
% HMW (high-molecular weight species) [2, 4]: 6.5%
% HMW (high-molecular weight species) [2, 5]: 4.3%
% HMW (high-molecular weight species) [2, 6]: 0.6%
% HMW (high-molecular weight species) [2, 7]: 0.8%
% HMW (high-molecular weight species) ([2]; conjugated to antibody against Target 6): 2.0%
% HMW (high-molecular weight species) [2, 8]: 1.6%
% HMW (high-molecular weight species) [2, 9]: 3.4%
% HMW (high-molecular weight species) [2, 10]: 1.5%
% HMW (high-molecular weight species) [2, 11]: 2.7%

CC[C@@]1(O)C(=O)OCc2c1cc1n(c2=O)Cc2c-1nc1ccccc1c2CCN(C(=O)OCc1ccc(NC(=O)[C@H](C)NC(=O)[C@@H](NC(=O)CCOCCOCCOCCOCCNC(=O)CCC(=O)Nc2ccc3c(c2)cc(CN(C)NC)n3CCC(=O)NCCOCCOCCOCCOCCC(=O)N[C@H](C(=O)N[C@@H](C)C(=O)Nc2ccc(COC(=O)N(CCc3c4c(nc5ccccc35)-c3cc5c(c(=O)n3C4)COC(=O)[C@]5(O)CC)C(C)C)cc2O[C@@H]2O[C@H](C(=O)O)[C@@H](O)[C@H](O)[C@H]2O)C(C)C)C(C)C)c(O[C@@H]2O[C@H](C(=O)O)[C@@H](O)[C@H](O)[C@H]2O)c1)C(C)C [Compound 36]
DAR [1, 4]: 6.78
DAR [1, 5]: 6.33
DAR [1, 7]: 6.88
DAR [1, 9]: 6.55
DAR [1, 10]: 6.32
DAR [1, 11]: 6.33
% HMW (high-molecular weight species) [2, 4]: 4.1%
% HMW (high-molecular weight species) [2, 5]: 6.1%
% HMW (high-molecular weight species) [2, 7]: 3.3%
% HMW (high-molecular weight species) [2, 9]: 3.5%
% HMW (high-molecular weight species) [2, 10]: 2.2%
% HMW (high-molecular weight species) [2, 11]: 6.2%
